Results: the DeepSol protein solubility set

Test: soluble on expression in E. coli; label from the status in PepcDB or PDB records

Sequence	soluble on expression in E. coli
SLQNNQPVEFNHAINYVNKIKNRFQGQPDIYKAFLEILHTYQKEQRNAKEAGGNYTPALTEQEVYAQVARLFKNQEDLLSEFGQFLPDA	soluble
MGSDKIHHHHHHMSINSREVLAEKVKNAVNNQPVTDMHTHLFSPNFGEILLWDIDELLTYHYLVAEVMRWTDVSIEAFWAMSKREQADLIWEELFIKRSPVSEACRGVLTCLQGLGLDPATRDLQVYREYFAKKTSEEQVDTVLQLANVSDVVMTNDPFDDNERISWLEGKQPDSRFHAALRLDPLLNEYEQTKHRLRDWGYKVNDEWNEGSIQEVKRFLTDWIERMDPVYMAVSLPPTFSFPEESNRGRIIRDCLLPVAEKHNIPFAMMIGVKKRVHPALGDAGDFVGKASMDGVEHLLREYPNNKFLVTMLSRENQHELVVLARKFSNLMIFGCWWFMNNPEIINEMTRMRMEMLGTSFIPQHSDARVLEQLIYKWHHSKSIIAEVLIDKYDDILQAGWEVTEEEIKRDVADLFSRNFWRFVGRNDHVTSVKVEQQT	not soluble
LFNYKEGDSFFIRGPYGNGFDVSLYEGREIVVVAGGSALAPVRGIVEYFYNNKEKCEKFKLIVGFKSPKDILFADDLKRWSKKLDILVTVDGAEEGYSGNVGLVTKYIPELDMKDINNTSIVVVGPPMMMKFTVEEFLKRDLDEKNIWV	not soluble
MTINMALHYPNYFAALVPQATAYSYYQYERNNDGTYKMIEDKNSISGKSSIRTNKIWFDSQKVKTLKNIPIWFIHSAADKVVNPKTYSLPIYKSLLDSGAKNKWFSYYDNVQGKDLKDTTYNGHWSWVYFFNNQVSSVQDVKTIKKSSKLSGFKPSNKSKGGAATAKEGKKSYNNVFDWLNDQKK	not soluble
MDIIERITKLKNEKNAVILAHNYQPEEIQKIADIIGDSLELCIAARDTDADVIVFCGVDFMAETAKVLNSGKKVLIPEIIETDCPMAHQLPPEIILEAKKKNPDAKVVIYVNTLASAKALADATCTSANADKVVNSFEEDEILFGPDNNLGYFVSKRSNKKIIPMPEGGHCYVHKMFTLDDAKAVKEKYPNAELLIHPESDPKLQETADYVMSTGGMVKHVLNSECSEFIIGTECDMISRLKIELEKAGKSKKLIPLRTDAICKSMKNITLEKIEKCLLEEKHEIMLDEKIIENARKAIERMLSILEHHHHHH	not soluble
MFGLVDAVSFYARAEKVFDPSIRHKPVVVLTNNDGCICAVCPIARQLGVPKFVPYFKVKSFLAKHGVVVRSSNYELYADLSERMMNVIARYSDNHYVYSIDESFLHFKNFSCVDNWHEYGHVIRKAVWRETRLPVGVGFGATLTLAKAANHASKKLSGFDGVAVIDDKASRKEILSRMSLTEVWGIGSKLGKRLSILGLKNGWDLANQSPKAMRGQFGVVVERTVNELNGMPCLQWDEIGQDKQEIFSTRSFGQRVTDGHALKAALSSHASIVGAKVRRQGSLIKRLVIFASSSPHDDSYYKKSVIYEFPIATDNILKLVGAISYVFDNIYRQGVSFYRCGVGGVELENSQFQQQDMFSLSVNNPPLMKCYDQINHRYGRGAVEVAIAEKNEKWAMRRNFLSPRSTSNWSEIPKINCLEHHHHHH	not soluble
MGSDKIHHHHHHMNLRRLKYFIKIVDVGSLTQAADILHIAQPALSQQLATLEGEVNQKLLIRTKRGVTPTNAGKILYSHAQAILRQCAQAQSAIDRAGGELSGSVSVGLAPGTAAQQLALPLMAEVQRQYPGIVLYFNENFGTTLSELIMNGRMDMAVIYDNRNIHGLRFIPLMKEPLCFVCPNSLMKPKKEITLAEVAQHNLFLPRIYNIMRKIVDEAFIKEGLTYQVKCEIESQTTLNAVLAAGMGCTIMPDSAARSMLNASNAWMAKIIDPDIYASLSFCMSDHLSLSEPAEVVKNILLSLMADRTPDNRPLTLVS	not soluble
GPGSMSPRTSERILALGVRRLRIRSSSTASSSCNGVVEFSTCGGAGGPSYRPLAAMAMIANIQAVAFTDSRRSVFQNKKTLPSPHGRNITPDAAETKGRALFSDSNSECFPADLDPPSASQLDRILPSLNQLRDEIPSSEYVEELVRRQGVSTDLWSNGEKNNSADDDDE	not soluble
MGSDKIHHHHHHMTYPKYTQQALSRYNLPRLKRIATELGVTPTGDKRAADTWVNAIIIHQSTKLQKVDNQALAQAELDSYIADQAQAIAPEPLTIVEISFDHHEYYADDKLVASISHDDSHLTQRWVVMINDKEIFRANTLMHCDRFICNHYKDGSLPVQEKEATPSTIENQIMAHIFNECQNYGFEILDDGIYNNGVKLGQVGCTDGNWWVKRRYSVQQQYSNSVLDAVRSLSMLDVSNGGKSIFDEYILDQPLEQLTGDRLQRLLERAELVTA	not soluble
